The target in series [1] is T1, human dimethylglycine dehydrogenase (hDMGDH) (Homo sapiens, UniProt Q9UI17).
T1 construct: gene DMGDH; covalent FAD at His91
T1 sequence (Q9UI17 29-866): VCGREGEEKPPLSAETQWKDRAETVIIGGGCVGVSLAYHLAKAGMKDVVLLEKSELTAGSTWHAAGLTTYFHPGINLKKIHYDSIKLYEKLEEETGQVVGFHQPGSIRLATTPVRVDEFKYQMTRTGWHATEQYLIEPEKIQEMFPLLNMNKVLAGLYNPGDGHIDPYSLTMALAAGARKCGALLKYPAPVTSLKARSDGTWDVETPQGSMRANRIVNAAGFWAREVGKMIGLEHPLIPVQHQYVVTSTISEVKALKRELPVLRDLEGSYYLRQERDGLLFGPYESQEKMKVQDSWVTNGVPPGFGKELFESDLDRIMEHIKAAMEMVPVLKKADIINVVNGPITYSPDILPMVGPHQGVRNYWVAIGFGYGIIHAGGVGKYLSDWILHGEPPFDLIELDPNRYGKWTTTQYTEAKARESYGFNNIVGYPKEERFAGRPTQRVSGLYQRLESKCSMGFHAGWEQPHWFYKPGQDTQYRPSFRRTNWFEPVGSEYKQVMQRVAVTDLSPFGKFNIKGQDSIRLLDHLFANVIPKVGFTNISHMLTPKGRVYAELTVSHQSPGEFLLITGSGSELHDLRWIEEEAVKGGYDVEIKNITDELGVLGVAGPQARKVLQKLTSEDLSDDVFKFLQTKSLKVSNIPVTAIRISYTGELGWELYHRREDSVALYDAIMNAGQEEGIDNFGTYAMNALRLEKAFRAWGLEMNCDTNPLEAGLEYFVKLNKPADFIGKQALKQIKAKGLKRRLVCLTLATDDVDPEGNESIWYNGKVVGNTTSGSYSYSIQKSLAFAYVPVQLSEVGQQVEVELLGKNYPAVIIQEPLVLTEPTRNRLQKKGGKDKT
Description: ferrocenium activity assay against THF concentration. In kind it is biochemical. Particulars: 1 mM DMG, 0.2 mM ferrocene, 0-75 μM THF, 50 mM HEPES/NaOH, 150 mM NaCl, 0.1 mM EDTA, pH 7.8, 25 °C; physiological methyl acceptor.

The target in series [2] is T1, human dimethylglycine dehydrogenase (hDMGDH). Nature of the series: X-ray crystal structure, […] Å. Particulars: covalent; 8alpha-methyl group linked to N3 of His91. In kind it is binding.
For series [3] the target is unchanged. Nature of the series: stopped flow, FAD reduction at […] nm, hyperbolic fit of kobs. Format: biochemical. Particulars: anaerobic, 50 mM HEPES/NaOH, 150 mM NaCl, pH 7.8, 25 °C; pre-steady-state; read-out: K D,DMG.
Substrate in series [4]: CN(C)CC(=O)O
Description: purified protein. Particulars: 0.2 mM ferrocenium hexafluorophosphate as electron acceptor, 50 mM HEPES/NaOH, 150 mM NaCl, 0.1 mM EDTA, pH 7.8, 25 °C. Format: biochemical, Homo sapiens.

Where [5] appears, read: natural disease variant, partly apoprotein.

As for `Nc1nc2c(c(=O)[nH]1)N[C@@H](CNc1ccc(C(=O)N[C@@H](CCC(=O)O)C(=O)O)cc1)CN2` [THF, tetrahydrofolate], in series [1], the activity entry is “the activity of WT decreases as a function of the THF concentration”.

In the case of `Cc1cc2nc3c(=O)[nH]c(=O)nc-3n(C[C@H](O)[C@H](O)[C@H](O)COP(=O)(O)OP(=O)(O)OC[C@H]3O[C@@H](n4cnc5c(N)ncnc54)[C@H](O)[C@@H]3O)c2cc1C` [FAD, flavin adenine dinucleotide], the “X-ray crystal structure, 3.1 Å” value in series [2] was “The FAD cofactor is covalently attached to the protein through a linkage between N3”.

In the case of `CN(C)CC(=O)O` [DMG, dimethylglycine], in series [3], the Kd amounted to 4.9 ± 0.3 mM.

B1: human dimethylglycine dehydrogenase (hDMGDH) (Homo sapiens) (protein)
chain: VCGREGEEKPPLSAETQWKDRAETVIIGGGCVGVSLAYHLAKAGMKDVVLLEKSELTAGSTWHAAGLTTYFHPGINLKKIHYDSIKLYEKLEEETGQVVGFHQPGSIRLATTPVRVDEFKYQMTRTGWHATEQYLIEPEKIQEMFPLLNMNKVLAGLYNPGDGHIDPYSLTMALAAGARKCGALLKYPAPVTSLKARSDGTWDVETPQGSMRANRIVNAAGFWAREVGKMIGLEHPLIPVQHQYVVTSTISEVKALKRELPVLRDLEGSYYLRQERDGLLFGPYESQEKMKVQDSWVTNGVPPGFGKELFESDLDRIMEHIKAAMEMVPVLKKADIINVVNGPITYSPDILPMVGPHQGVRNYWVAIGFGYGIIHAGGVGKYLSDWILHGEPPFDLIELDPNRYGKWTTTQYTEAKARESYGFNNIVGYPKEERFAGRPTQRVSGLYQRLESKCSMGFHAGWEQPHWFYKPGQDTQYRPSFRRTNWFEPVGSEYKQVMQRVAVTDLSPFGKFNIKGQDSIRLLDHLFANVIPKVGFTNISHMLTPKGRVYAELTVSHQSPGEFLLITGSGSELHDLRWIEEEAVKGGYDVEIKNITDELGVLGVAGPQARKVLQKLTSEDLSDDVFKFLQTKSLKVSNIPVTAIRISYTGELGWELYHRREDSVALYDAIMNAGQEEGIDNFGTYAMNALRLEKAFRAWGLEMNCDTNPLEAGLEYFVKLNKPADFIGKQALKQIKAKGLKRRLVCLTLATDDVDPEGNESIWYNGKVVGNTTSGSYSYSIQKSLAFAYVPVQLSEVGQQVEVELLGKNYPAVIIQEPLVLTEPTRNRLQKKGGKDKT
notes: covalent FAD at His91
Regarding B1, in series [4], the Km is 1.4 ± 0.1 mM, the Vmax turned out to be 22.1 µM/min, the catalytic constant (kcat) is 3.55 ± 0.0667 s⁻¹ and the kcat/Km is 2280 ± 267 M⁻¹ s⁻¹.

B2: human dimethylglycine dehydrogenase (hDMGDH) (Homo sapiens; H109R) (protein)
chain: VCGREGEEKPPLSAETQWKDRAETVIIGGGCVGVSLAYHLAKAGMKDVVLLEKSELTAGSTWHAAGLTTYFHPGINLKKIRYDSIKLYEKLEEETGQVVGFHQPGSIRLATTPVRVDEFKYQMTRTGWHATEQYLIEPEKIQEMFPLLNMNKVLAGLYNPGDGHIDPYSLTMALAAGARKCGALLKYPAPVTSLKARSDGTWDVETPQGSMRANRIVNAAGFWAREVGKMIGLEHPLIPVQHQYVVTSTISEVKALKRELPVLRDLEGSYYLRQERDGLLFGPYESQEKMKVQDSWVTNGVPPGFGKELFESDLDRIMEHIKAAMEMVPVLKKADIINVVNGPITYSPDILPMVGPHQGVRNYWVAIGFGYGIIHAGGVGKYLSDWILHGEPPFDLIELDPNRYGKWTTTQYTEAKARESYGFNNIVGYPKEERFAGRPTQRVSGLYQRLESKCSMGFHAGWEQPHWFYKPGQDTQYRPSFRRTNWFEPVGSEYKQVMQRVAVTDLSPFGKFNIKGQDSIRLLDHLFANVIPKVGFTNISHMLTPKGRVYAELTVSHQSPGEFLLITGSGSELHDLRWIEEEAVKGGYDVEIKNITDELGVLGVAGPQARKVLQKLTSEDLSDDVFKFLQTKSLKVSNIPVTAIRISYTGELGWELYHRREDSVALYDAIMNAGQEEGIDNFGTYAMNALRLEKAFRAWGLEMNCDTNPLEAGLEYFVKLNKPADFIGKQALKQIKAKGLKRRLVCLTLATDDVDPEGNESIWYNGKVVGNTTSGSYSYSIQKSLAFAYVPVQLSEVGQQVEVELLGKNYPAVIIQEPLVLTEPTRNRLQKKGGKDKT
notes: covalent FAD at His91
Take B2: in series [4] (setting [5]), the Km was 32.2 ± 5.6 mM, the Vmax is 44.1 µM/min, the catalytic constant (kcat) worked out at 9.07 ± 0.667 s⁻¹ and the kcat/Km worked out at 183 ± 16.7 M⁻¹ s⁻¹.

One may read the Km as the concentration of substrate that gives half-maximal velocity. The Vmax is the rate approached at saturating substrate. What is called kcat is the number of substrate molecules converted per active site and unit of time at saturation. For orientation: kcat/Km means the turnover number divided by the Michaelis constant.

For the origin of these results see PMC5082570, “Structure and biochemical properties of recombinant human dimethylglycine dehydrogenase and comparison to the disease‐related H109R variant” (The Febs Journal, 2016).
